Measured values: PMC6212786 (Nucleic Acids Research, 2018)

B1: T4LΔ(222–247)GS: internally truncated construct with a di-amino acid Gly-Ser substituted for residues 222–247 (protein)
chain: MILKILNEIASIGSTKQKQAILEKNKDNELLKRVYRLTYSRGLQYYIKKWPKPGIATQSFGMLTLTDMLDFIEFTLATRKLTGNAAIEELTGYITDGKKDDVEVLRRVMMRDLECGASVSIANKVWPGLIPEQPQMLASSYDEKGINKNIKFPAFAQLKADGARCFAEVRGDELDDVRLLSRAGNEYLGLDLLKEELIKMTAEARQIHPEGVLIDGELVYHGSAEVAESRTASNGIANKSLKGTISEKEAQCMKFQVWDYVPLVEIYSLPAFRLKYDVRFSKLEQMTSGYDKVILIENQVVNNLDEAKVIYKKYIDQGLEGIILKNIDGLWENARSKNLYKFKEVIDVDLKIVGIYPHRKDPTKAGGFILESECGKIKVNAGSGLKDKAGVKSHELDRTRIMENQNYYIGKILECECNGWLKSDGRTDYVKLFLPIAIRLREDKTKANTFEDVFGDFHEVTGL
modifications: left off: His6 (LEHHHHHH), C-terminal, kept
B2: gp44/62: T4 clamp-loader prepared by co-expressing gp44 and gp62 (protein, UniProt P04526 1-319; P04527 1-187, looked up)
Sliding-clamp-loader large …: MITVNEKEHILEQKYRPSTIDECILPAFDKETFKSITSKGKIPHIILHSPSPGTGKTTVAKALCHDVNADMMFVNGSDCKIDFVRGPLTNFASAASFDGRQKVIVIDEFDRSGLAESQRHLRSFMEAYSSNCSIIITANNIDGIIKPLQSRCRVITFGQPTDEDKIEMMKQMIRRLTEICKHEGIAIADMKVVAALVKKNFPDFRKTIGELDSYSSKGVLDAGILSLVTNDRGAIDDVLESLKNKDVKQLRALAPKYAADYSWFVGKLAEEIYSRVTPQSIIRMYEIVGENNQYHGIAANTELHLAYLFIQLACEMQWK
Sliding-clamp-loader small …: MSLFKDDIQLNEHQVAWYSKDWTAVQSAADSFKEKAENEFFEIIGAINNKTKCSIAQKDYSKFMVENALSQFPECMPAVYAMNLIGSGLSDEAHFNYLMAAVPRGKRYGKWAKLVEDSTEVLIIKLLAKRYQVNTNDAINYKSILTKNGKLPLVLKELKGLVTDDFLKEVTKNVKEQKQLKKLALEW
B3: T4 DNA ligase: Full-length wild-type T4 DNA ligase (residues 1–487) (protein, UniProt P00970 1-487, looked up)
chain: MILKILNEIASIGSTKQKQAILEKNKDNELLKRVYRLTYSRGLQYYIKKWPKPGIATQSFGMLTLTDMLDFIEFTLATRKLTGNAAIEELTGYITDGKKDDVEVLRRVMMRDLECGASVSIANKVWPGLIPEQPQMLASSYDEKGINKNIKFPAFAQLKADGARCFAEVRGDELDDVRLLSRAGNEYLGLDLLKEELIKMTAEARQIHPEGVLIDGELVYHEQVKKEPEGLDFLFDAYPENSKAKEFAEVAESRTASNGIANKSLKGTISEKEAQCMKFQVWDYVPLVEIYSLPAFRLKYDVRFSKLEQMTSGYDKVILIENQVVNNLDEAKVIYKKYIDQGLEGIILKNIDGLWENARSKNLYKFKEVIDVDLKIVGIYPHRKDPTKAGGFILESECGKIKVNAGSGLKDKAGVKSHELDRTRIMENQNYYIGKILECECNGWLKSDGRTDYVKLFLPIAIRLREDKTKANTFEDVFGDFHEVTGL
modifications: full-length
B4: E. coli LigA: E. coli NAD+-dependent DNA ligase (protein, UniProt P15042 1-671, looked up)
DNA ligase: MESIEQQLTELRTTLRHHEYLYHVMDAPEIPDAEYDRLMRELRELETKHPELITPDSPTQRVGAAPLAAFSQIRHEVPMLSLDNVFDEESFLAFNKRVQDRLKNNEKVTWCCELKLDGLAVSILYENGVLVSAATRGDGTTGEDITSNVRTIRAIPLKLHGENIPARLEVRGEVFLPQAGFEKINEDARRTGGKVFANPRNAAAGSLRQLDPRITAKRPLTFFCYGVGVLEGGELPDTHLGRLLQFKKWGLPVSDRVTLCESAEEVLAFYHKVEEDRPTLGFDIDGVVIKVNSLAQQEQLGFVARAPRWAVAFKFPAQEQMTFVRDVEFQVGRTGAITPVARLEPVHVAGVLVSNATLHNADEIERLGLRIGDKVVIRRAGDVIPQVVNVVLSERPEDTREVVFPTHCPVCGSDVERVEGEAVARCTGGLICGAQRKESLKHFVSRRAMDVDGMGDKIIDQLVEKEYVHTPADLFKLTAGKLTGLERMGPKSAQNVVNALEKAKETTFARFLYALGIREVGEATAAGLAAYFGTLEALEAASIEELQKVPDVGIVVASHVHNFFAEESNRNVISELLAEGVHWPAPIVINAEEIDSPFAGKTVVLTGSLSQMSRDDAKARLVELGAKVAGSVSKKTDLVIAGEAAGSKLAKAQELGIEVIDEAEMLRLLGS

Key:
DNA substrate = assay: in vitro DNA ligation activity; assay type: biochemical
[1] = system: nicked substrates containing a single 5′-terminal ribonucleotide adjacent to the nick; settings: cited from earlier work

Molecule | ligation activity on nicked substrate with 5′-terminal ribonucleotide [1] | further results
B1 |  | in vitro DNA ligation activity relative to wild-type (DNA substrate; vs wild-type T4 DNA ligase, Supplementary Figures S8, S10): comparable or slightly better
B2 |  | DNA ligase activity of the preparation (DNA substrate; control of gp45 and gp44/62 preparations, data not shown): no detectable DNA ligase activity
B3 | better ligation activity on the same substrate, although a fraction of the adenylated intermediate fail to complete the nick-sealing reaction | 
B4 | ligates this substrate as well as it does a regular DNA substrate | 
